Assay results taken from paper doi:10.1101/2023.08.08.552318.

Target: Hemiselmis andersenii phycobiliprotein α subunit Haα^OB1 (open-braced form) (Hemiselmis andersenii)
Experiment: crystal structure

- stoichiometry N: 2
Substance: Hemiselmis andersenii phycobiliprotein α subunit Haα^OB1 (open-braced form) (natural protein)
